Ends that are not written are not given here.
How the values were obtained:
[1] = molecular target: T1, GST-huBDNFpro E1; assay: ELISA on GST fusion proteins (Example 7), single condition
T1 construct: also called GST-huBDNFpro-E1 peptide fragment; GST fusion partner and any linker between GST and the peptide not given
T1 chain: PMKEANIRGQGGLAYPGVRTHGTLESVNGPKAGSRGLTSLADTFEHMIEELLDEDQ

[2] = molecular target: T2, GST-huBDNFpro E4; assay: as above
T2 construct: also called GST-huBDNFpro-E4 peptide fragment; GST fusion partner and any linker between GST and the peptide not given
T2 chain: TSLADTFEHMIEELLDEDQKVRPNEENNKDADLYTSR

[3] = molecular target: T3, biotinylated LL peptide fragment (human, also: biotinylated (position not given here)); assay: ELISA on biotinylated peptide
T3 construct: Synthesized in vitro; 12 amino acids
T3 peptide: LLFLLEEYKNYL

[4] = molecular target: T4, biotinylated VP peptide fragment (human, also: biotinylated (position not given here)); assay: ELISA on biotinylated peptide
T4 construct: Synthesized in vitro; 12 amino acids
T4 peptide: VMLSSQVPLEPP

[5] = molecular target: T5, GST-huBDNFpro-E5 peptide fragment (human); assay: ELISA on GST fusion proteins (Example 7), single condition, concentrations not given
T5 construct: the text speaks of 36 amino acids; also called polypeptide E5; not shown: Glutathione S-transferase (GST) fusion partner
T5 chain: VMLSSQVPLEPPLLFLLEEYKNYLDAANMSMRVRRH

[6] = molecular target: T6, GST-GPC3; assay: as above
T6 construct: fusion tag; It appears to be the negative control antigen

[7] = molecular target: T1, GST-huBDNFpro E1; assay: as above
[8] = molecular target: T7, GST-huBDNFpro E3; assay: as above
T7 construct: fusion tag; also called GST-huBDNFpro-E3 peptide fragment

[9] = molecular target: T8, GST-huBDNFpro-E2 peptide fragment (human, UniProt O18755 76-129 (Procyon lotor entry)); assay: as above
T8 construct: also called polypeptide E2; not shown: Glutathione S-transferase (GST) fusion partner
T8 sequence: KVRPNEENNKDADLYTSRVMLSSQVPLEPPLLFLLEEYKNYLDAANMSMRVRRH

[10] = molecular target: T9, full length GST-huBDNFpro (human, UniProt P23560 20-129); assay: as above
T9 construct: GST is placed at the N-terminus by the printed name only; not shown: Glutathione S-transferase (GST) fusion partner
T9 chain: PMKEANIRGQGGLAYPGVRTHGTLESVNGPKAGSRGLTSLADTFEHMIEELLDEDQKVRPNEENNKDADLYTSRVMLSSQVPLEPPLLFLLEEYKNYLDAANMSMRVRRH

[11] = molecular target: T2, GST-huBDNFpro E4; assay: as above
[12] = molecular target: T3, biotinylated LL peptide fragment; assay: ELISA on biotinylated synthetic peptides (Example 8), single condition, concentrations not given
[13] = molecular target: T10, biotinylated DH peptide fragment (human, also: biotinylated (position not given here)); assay: as above
T10 construct: Synthesized in vitro; 12 amino acids; also called polypeptide DH
T10 peptide: DAANMSMRVRRH

[14] = molecular target: T4, biotinylated VP peptide fragment; assay: as above
[15] = molecular target: T11, human proBDNF precursor protein (human, UniProt P23560 19-247); assay: SPR, Biacore T200, capture method, antigen 0.25-8 nM
T11 construct: also called human proBDNF precursor recombinant protein
T11 sequence (looked up): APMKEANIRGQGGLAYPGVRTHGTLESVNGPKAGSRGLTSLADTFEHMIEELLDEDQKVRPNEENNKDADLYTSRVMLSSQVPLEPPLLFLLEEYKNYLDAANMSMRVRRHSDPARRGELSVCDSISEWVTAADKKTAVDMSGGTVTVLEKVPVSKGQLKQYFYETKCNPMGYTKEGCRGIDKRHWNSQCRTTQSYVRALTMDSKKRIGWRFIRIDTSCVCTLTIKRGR
Experimental: The affinity and kinetic parameters of the 1D3 and 2H8 monoclonal antibodies were measured by the capture method using Biacore T200 system (purchased from GE), respectively. The system was manipulated according to the instructions, human proBDNF precursor protein was used at a concentration of 0.25 nM, 0.5 nM, 1 nM, 2 nM, 4 nM, and 8 nM, respectively. The Biacore T200 evaluation software was used to evaluate the resulting action curve and calculate the affinity KD value.

[16] = molecular target: T12, BSA (UniProt P02769 25-607); assay: single-phage ELISA
T12 construct: also called negative control protein BSA
T12 sequence (P02769 25-607 limits assumed): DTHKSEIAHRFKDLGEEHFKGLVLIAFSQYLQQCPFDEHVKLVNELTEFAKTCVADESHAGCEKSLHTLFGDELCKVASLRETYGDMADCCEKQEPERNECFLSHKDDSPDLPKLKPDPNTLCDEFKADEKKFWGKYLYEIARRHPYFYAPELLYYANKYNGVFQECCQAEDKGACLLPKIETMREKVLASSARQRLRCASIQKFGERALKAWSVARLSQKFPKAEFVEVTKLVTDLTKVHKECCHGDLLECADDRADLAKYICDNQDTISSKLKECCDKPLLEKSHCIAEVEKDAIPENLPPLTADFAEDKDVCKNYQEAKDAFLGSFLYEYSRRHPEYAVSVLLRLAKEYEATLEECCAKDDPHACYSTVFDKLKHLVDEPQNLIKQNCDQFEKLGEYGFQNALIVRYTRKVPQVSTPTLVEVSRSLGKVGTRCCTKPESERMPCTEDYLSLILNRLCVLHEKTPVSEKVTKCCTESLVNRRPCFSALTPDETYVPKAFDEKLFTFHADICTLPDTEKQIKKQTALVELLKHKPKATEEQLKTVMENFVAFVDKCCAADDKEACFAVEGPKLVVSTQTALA
Experimental: Ninety-six clones were randomly selected from the fourth round of screening, and single-phage ELISA (enzyme-linked immunosorbent assay) was used to analyze their binding ability to human proBDNF precursors. For this purpose, each single colony was inoculated into 300 μl of 2×YT/ampicillin medium (containing 2% glucose) in a 96-well deep-well culture plate, shaken and cultured at 37° C. and 250 rpm for 16 hours. 20 μl of the culture was inoculated into 500 μl of 2×YT/ampicillin medium (containing 0.1% glucose), and shaken and cultured at 37° C. and 250 rpm for 1.5 hours. For preparing helper phage solution, 75 μl of M13KO7 (titer: 3×10¹² pfu/ml) was taken and mixed into 15 ml of 2×YT medium, added to the culture plate at 50 μl/well, and incubate at 37° C. and 150 rpm for 30 minutes. And then, the prepared kanamycin solution was added at 50 μl/well (180 μl of 50 mg/ml kanamycin was taken and added to 15 ml 2×YT medium), and shaken and cultured at 37° C. and 250 rpm for 16 hours. […]
To perform a single phage ELISA, a 96-well MediSorp ELISA plate (purchased from Nunc) was coated with 100 ng/well antigen human proBDNF precursor and negative control protein BSA (100 μl/well) respectively, overnight at 4° C. […] The extinction value was measured at 450 nm using an enzyme-linked immunoassay device (Bio-Rad).

B1: 2H8 monoclonal antibody (antibody, human IgG4, kappa, V domains shown)
VH: EVQLVETGGGLVQPGGSLRLSCAASGFTFSSYGMHWVRQAPGKGLEWVSVISGSGDSTYYAESVKGRFTISRDNARNTVYLQMNSLRAEDTAVYYCASGILTGYVFDYWGKGTMVTVSS
VL: DVVMTQSPLSLPVTLGQPASISCRSSQSLVSNDGNTYLNWFQQRPGQPPRRLIYMVSKWDSGVPDRFSGSGSGTDFTLRISRVEAEDVGVYYCMQSTHWPPTFGGGTKLEIKR
notes: also called recombinant monoclonal antibody 2H8 (human IgG1 type)
binding result [1]: no binding
binding result [2]: no binding
binding result [3]: no binding
binding result [4]: no binding
OD450nM [5]: 1.06
OD450nM [6]: 0.05
OD450nM [7]: 0.015
OD450nM [8]: 0.0144
OD450nM [9]: 0.962
OD450nM [10]: 0.758
OD450nM [11]: 0.0089
OD450nM [12]: 0.0115
OD450nM [13]: 0.831
OD450nM [14]: 0.0104
Kd [15]: 1.91 nM
koff [15]: 0.00594 s⁻¹
kon [15]: 3.1e+06 M⁻¹ s⁻¹

B2: single-chain antibody 1D3 (scFv)
scFv: QVQLVESGGGLIQPGGSMRLSCAASGFSLSGYDMHWVRQIAGKGLEWVAGLGMEGDSYYSASVKGRFTISRQDAKNSLYLEMKDLGGGDTAVYYCLRDVHGFDVWGQGTTVTVSSGGGGSGGGGSGGGGSDVVMTQSPLSLPVTPGEPASISCRSSQSLLYSNGYTYLDWYLQRPGQSPQLLIYMGSNRASGVPDRFSGSGSGTDFTLKISRVEAEDVGVYYCMQALQTPLTFGGGTKLEIKR
notes: also called 1D3, scFv; pCantab-1D3
binding result [16]: no binding (tested: 100 ng/well coated)

B3: single-chain antibody 2H8 (scFv)
scFv: EVQLVETGGGLVQPGGSLRLSCAASGFTFSSYGMHWVRQAPGKGLEWVSVISGSGDSTYYAESVKGRFTISRDNARNTVYLQMNSLRAEDTAVYYCASGILTGYVFDYWGKGTMVTVSSGGGGSGGGGSGGGGSDVVMTQSPLSLPVTLGQPASISCRSSQSLVSNDGNTYLNWFQQRPGQPPRRLIYMVSKWDSGVPDRFSGSGSGTDFTLRISRVEAEDVGVYYCMQSTHWPPTFGGGTKLEIKR
notes: probably a print error; also called 2H8, scFv; pCantab-2H8
binding result [16]: no binding (tested: 100 ng/well coated)

B4: 1D3 monoclonal antibody (antibody, human IgG4, kappa, V domains shown)
VH: QVQLVESGGGLIQPGGSMRLSCAASGFSLSGYDMHWVRQIAGKGLEWVAGLGMEGDSYYSASVKGRFTISRQDAKNSLYLEMKDLGGGDTAVYYCLRDVHGFDVWGQGTTVTVSS
VL: DVVMTQSPLSLPVTPGEPASISCRSSQSLLYSNGYTYLDWYLQRPGQSPQLLIYMGSNRASGVPDRFSGSGSGTDFTLKISRVEAEDVGVYYCMQALQTPLTFGGGTKLEIKR
notes: also called recombinant monoclonal antibody 1D3 (human IgG1 type); Ab-proBDNF (1D3)
binding result [1]: no binding
binding result [2]: no binding
binding result [3]: no binding
binding result [4]: no binding
OD450nM [5]: 0.979
OD450nM [6]: 0.0577
OD450nM [7]: 0.0114
OD450nM [8]: 0.0245
OD450nM [9]: 0.914
OD450nM [10]: 0.625
OD450nM [11]: 0.0081
OD450nM [12]: 0.0167
OD450nM [13]: 1.7
OD450nM [14]: 0.0122

Source: patent US20210061896A1 (SHANGHAI YILE BIOTECHNOLOGY, published 2021)
